What was measured:
[1] = molecular target: CSF1 (colony stimulating factor 1 ligand) (UniProt P09603); assay: cell-based or functional assay
[2] = molecular target: IL34 (interleukin 34 ligand) (UniProt Q6ZMJ4); assay: cell-based or functional assay
Chain of UniProt Q6ZMJ4 (Q6ZMJ4 21-242 limits assumed): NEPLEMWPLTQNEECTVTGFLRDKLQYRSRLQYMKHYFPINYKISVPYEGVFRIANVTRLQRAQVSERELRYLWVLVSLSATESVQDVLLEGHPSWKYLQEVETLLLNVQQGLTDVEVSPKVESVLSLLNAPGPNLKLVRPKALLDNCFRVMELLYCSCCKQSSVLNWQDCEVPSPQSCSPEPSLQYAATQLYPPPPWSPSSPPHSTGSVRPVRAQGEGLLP

Chain of UniProt P09603 (P09603 33-190 limits assumed): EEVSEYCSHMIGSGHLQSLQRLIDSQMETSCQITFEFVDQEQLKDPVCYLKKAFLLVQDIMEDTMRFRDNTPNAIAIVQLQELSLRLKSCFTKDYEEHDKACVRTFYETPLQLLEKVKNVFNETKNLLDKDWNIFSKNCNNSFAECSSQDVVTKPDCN

- IC50 for inhibition of CSF1-induced monocyte proliferation [1]: 1.5 nM
- IC50 for inhibition of IL34-induced monocyte proliferation [2]: 0.27 nM
Substance: hCSF1R-ECD.506-Fc (Fc fusion)

Reference: patent US20100136006A1
